# Measurements published in US6562613.
# System: series of eight synthetic peptides with sequences found in and around the C-proteinase cleavage sites of -Ala-Asp- and -Gly-Asp- in the four pro-alpha chains of types I, II and III procollagen
substance,measurement,value
C-proteinase (enzyme used on the synthetic peptide substrates; source not stated),"cleavage of synthetic peptides, HPLC followed by laser desorption mass spectrometry",four of the eight propeptides were specifically and completely cleaved by the enzyme
